From US20050064507

Columns and labels:
[1] = test system: T1, ARHGAP6 peptide DGQKRKKSLRKKLD (SEQ ID NO:92)
T1 sequence: DGQKRKKSLRKKLD

[2] = test system: T2, CACNA1C peptide RGFLRSASLGRRASFHLE (SEQ ID NO:96)
T2 sequence: RGFLRSASLGRRASFHLE

[3] = test system: T3, DGKZ peptide KKKKRASFKRKSSKKG (SEQ ID NO:77)
T3 sequence: KKKKRASFKRKSSKKG

[4] = test system: T4, EBNA1BP2 peptide KRPGKKGSNKRPGKR (SEQ ID NO:112)
T4 sequence: KRPGKKGSNKRPGKR

[5] = test system: T5, ERN1 peptide ISDFGLAKKLAVGRHSFSRR (SEQ ID NO:145)
T5 sequence: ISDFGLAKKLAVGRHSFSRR

[6] = test system: T6, FLJ20574 peptide GENVLKKSMKSRVKG (SEQ ID NO:113)
T6 sequence: GENVLKKSMKSRVKG

[7] = test system: T7, KCNH2 peptide RQRKRKLSFRRRTDKD (SEQ ID NO:86)
T7 sequence: RQRKRKLSFRRRTDKD

[8] = test system: T8, MAP3K14 peptide WKGKRRSKARKKRK (SEQ ID NO:100)
T8 sequence: WKGKRRSKARKKRK

[9] = test system: T9, MARCKS peptide KKRFSFKKSFKLSGFSFKKN (SEQ ID NO:119)
T9 sequence: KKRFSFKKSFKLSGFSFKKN

[10] = test system: T10, MARCKS peptide KKRFSFKKSFKLSGFSFKKN (SEQ ID NO:123)
T10 sequence: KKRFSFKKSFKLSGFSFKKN

[11] = test system: T11, MCM2 peptide VQRHRSMRKTFARYLSFRRD (SEQ ID NO:129)
T11 sequence: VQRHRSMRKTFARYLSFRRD

[12] = test system: T12, MGC2941 peptide RPTPGDGEKRSRIKKSKKRK (SEQ ID NO:139)
T12 sequence: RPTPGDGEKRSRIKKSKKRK

[13] = test system: T13, MLK3 peptide HVRRRRGTFKRSKLRARD (SEQ ID NO:76)
T13 sequence: HVRRRRGTFKRSKLRARD

[14] = test system: T14, NF1 peptide AGSFKRNSIKKIV (SEQ ID NO:102)
T14 sequence: AGSFKRNSIKKIV

[15] = test system: T15, NF1 peptide SQVQKQRSAGSFKRNSIKKI (SEQ ID NO:127)
T15 sequence: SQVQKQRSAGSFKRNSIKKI

[16] = test system: T16, NIK peptide TEGKMARVAWKGKRRSKARK (SEQ ID NO:164)
T16 sequence: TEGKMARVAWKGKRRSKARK

[17] = test system: T17, PARIS1 peptide EYLERRASRRRAV (SEQ ID NO:89)
T17 sequence: EYLERRASRRRAV

[18] = test system: T18, PLEK peptide KFARKSTRRSIRLPE (SEQ ID NO:78)
T18 sequence: KFARKSTRRSIRLPE

[19] = test system: T19, PPP1R14A peptide QKRHARVTVKYDRRE (SEQ ID NO:107)
T19 sequence: QKRHARVTVKYDRRE

[20] = test system: T20, PRKCA peptide RFARKGSLRQKNV (SEQ ID NO:85)
T20 sequence: RFARKGSLRQKNV

[21] = test system: T21, PSCD2 peptide AARKKRISVKKKQEQ (SEQ ID NO:93)
T21 sequence: AARKKRISVKKKQEQ

[22] = test system: T22, cytohesin-2 peptide VDPFYEMLAARKKRISVKKK (SEQ ID NO:150)
T22 sequence: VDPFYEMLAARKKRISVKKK

[23] = test system: T23, dag kinase iota peptide PQNSLKASNRKKKRTSFKRK (SEQ ID NO:151)
T23 sequence: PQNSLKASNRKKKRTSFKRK

[24] = test system: T24, dag kinase zeta peptide KKKKRASFKRKSSKKG (SEQ ID NO:114)
T24 sequence: KKKKRASFKRKSSKKG

[25] = test system: T25, dag kinase zeta peptide RPQNTLKASKKKKRASFKRK (SEQ ID NO:118)
T25 sequence: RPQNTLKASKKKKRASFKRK

[26] = test system: T26, fit1 peptide VQMTWSYPDEKNKRASVRRR (SEQ ID NO:158)
T26 sequence: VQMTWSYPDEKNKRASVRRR

[27] = test system: T27, peptide AGSFKRNSIKKIV (SEQ ID NO:19)
T27 sequence: XXPPGAGSFKRNSIKKIV

[28] = test system: T28, peptide AQIVKRASLKRGKQ (SEQ ID NO:10)
T28 sequence: XXPPGAQIVKRASLKRGKQ

[29] = test system: T29, peptide AVNSRRRAGQKKK (SEQ ID NO:48)
T29 sequence: XXPPGAVNSRRRAGQKKK

[30] = test system: T30, peptide DLLGKKVSTKTLSEDD (SEQ ID NO:51)
T30 sequence: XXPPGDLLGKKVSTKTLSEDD

[31] = test system: T31, peptide EGGDRRASGRRK (SEQ ID NO:34)
T31 sequence: XXPPGEGGDRRASGRRK

[32] = test system: T32, peptide GLLDRKGSWKKLDDM (SEQ ID NO:35)
T32 sequence: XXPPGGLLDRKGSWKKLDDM

[33] = test system: T33, peptide GQAWGRQSPRRLED (SEQ ID NO:46)
T33 sequence: XXPPGGQAWGRQSPRRLED

[34] = test system: T34, peptide IDYYKKTTNGRLPVK (SEQ ID NO:73)
T34 sequence: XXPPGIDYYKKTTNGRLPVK

[35] = test system: T35, peptide KEVVRTDSLKGRRGR (SEQ ID NO:30)
T35 sequence: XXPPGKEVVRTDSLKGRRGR

[36] = test system: T36, peptide KKKFRTPSFLKKSKK (SEQ ID NO:11)
T36 sequence: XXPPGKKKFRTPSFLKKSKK

[37] = test system: T37, peptide LLGSGKVTDRKAL (SEQ ID NO:39)
T37 sequence: XXPPGLLGSGKVTDRKAL

[38] = test system: T38, peptide NYLRRRLSDSNFMAN (SEQ ID NO:38)
T38 sequence: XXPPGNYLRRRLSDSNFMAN

[39] = test system: T39, peptide QKKSRLRRRASQLKI (SEQ ID NO:9)
T39 sequence: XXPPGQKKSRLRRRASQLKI

[40] = test system: T40, peptide RKKRKKKSSKSLAHAGVALA (SEQ ID NO:31)
T40 sequence: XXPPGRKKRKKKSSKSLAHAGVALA

[41] = test system: T41, peptide RRRQKRRTGALVLSRGGKR (SEQ ID NO:71)
T41 sequence: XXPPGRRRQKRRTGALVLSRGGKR

Substance PKC-delta has an in vitro phosphorylation (% of best substrate) [1] of 17, an in vitro phosphorylation (% of best substrate) [2] of 18 and an in vitro phosphorylation (% of best substrate) [3] of 76. It also gave an in vitro phosphorylation (% of best substrate) [4] of 8, an in vitro phosphorylation, 1 uM peptide (% of best substrate) [5] of 34 and an in vitro phosphorylation, 10 uM peptide (% of best substrate) [5] of 23. For the same substance, the in vitro phosphorylation (% of best substrate) [6] was 4, the in vitro phosphorylation (% of best substrate) [7] was 42 and the in vitro phosphorylation (% of best substrate) [8] was 22. It also gave an in vitro phosphorylation, 1 uM peptide (% of best substrate) [9] of 42, an in vitro phosphorylation, 10 uM peptide (% of best substrate) [9] of 16 and an in vitro phosphorylation, 1 uM peptide (% of best substrate) [10] of 45. For the same substance, the in vitro phosphorylation, 10 uM peptide (% of best substrate) [10] was 22, the in vitro phosphorylation, 1 uM peptide (% of best substrate) [11] was 32 and the in vitro phosphorylation, 10 uM peptide (% of best substrate) [11] was 14. It also gave an in vitro phosphorylation, 1 uM peptide (% of best substrate) [12] of 31, an in vitro phosphorylation, 10 uM peptide (% of best substrate) [12] of 24 and an in vitro phosphorylation (% of best substrate) [13] of 100. It also gave an in vitro phosphorylation (% of best substrate) [14] of 14, an in vitro phosphorylation, 1 uM peptide (% of best substrate) [15] of 52 and an in vitro phosphorylation, 10 uM peptide (% of best substrate) [15] of 33. It also gave an in vitro phosphorylation, 1 uM peptide (% of best substrate) [16] of 18, an in vitro phosphorylation, 10 uM peptide (% of best substrate) [16] of 26 and an in vitro phosphorylation (% of best substrate) [17] of 20. It also gave an in vitro phosphorylation (% of best substrate) [18] of 52, an in vitro phosphorylation (% of best substrate) [19] of 10 and an in vitro phosphorylation (% of best substrate) [20] of 34. The in vitro phosphorylation (% of best substrate) [21] was 35, the in vitro phosphorylation, 1 uM peptide (% of best substrate) [22] was 34 and the in vitro phosphorylation, 10 uM peptide (% of best substrate) [22] was 20. It also gave an in vitro phosphorylation, 1 uM peptide (% of best substrate) [23] of 27, an in vitro phosphorylation, 10 uM peptide (% of best substrate) [23] of 37 and an in vitro phosphorylation, 1 uM peptide (% of best substrate) [24] of 80. It also gave an in vitro phosphorylation, 10 uM peptide (% of best substrate) [24] of 100, an in vitro phosphorylation, 1 uM peptide (% of best substrate) [25] of 73 and an in vitro phosphorylation, 10 uM peptide (% of best substrate) [25] of 60. The in vitro phosphorylation, 1 uM peptide (% of best substrate) [26] was 18, the in vitro phosphorylation, 10 uM peptide (% of best substrate) [26] was 33 and the in vitro phosphorylation (% of best substrate) [27] was 14. It also gave an in vitro phosphorylation (% of best substrate) [28] of 32, an in vitro phosphorylation (% of best substrate) [29] of 2 and an in vitro phosphorylation (% of best substrate) [30] of 2. For the same substance, the in vitro phosphorylation (% of best substrate) [31] was 5, the in vitro phosphorylation (% of best substrate) [32] was 4 and the in vitro phosphorylation (% of best substrate) [33] was 2. The in vitro phosphorylation (% of best substrate) [34] was 0, the in vitro phosphorylation (% of best substrate) [35] was 7 and the in vitro phosphorylation (% of best substrate) [36] was 25. It also gave an in vitro phosphorylation (% of best substrate) [37] of 3, an in vitro phosphorylation (% of best substrate) [38] of 3 and an in vitro phosphorylation (% of best substrate) [39] of 34. For the same substance, the in vitro phosphorylation (% of best substrate) [40] was over 5 and the in vitro phosphorylation (% of best substrate) [41] was 1.
